Results taken from paper PMC9942828.

Assays:
[1] = target: PA-tagged SORLA VPS10p-domain (1 to 753), T659C mutant (human) (UniProt Q92673); assay: cross-linking
[2] = target: SORLA dimer of SORLA-V1 and SORLA-V2 with reconstituted Venus (human) (UniProt Q92673); assay: co-IP

Sequence of UniProt Q92673 (Q92673 82-2214, chain 1 of 2): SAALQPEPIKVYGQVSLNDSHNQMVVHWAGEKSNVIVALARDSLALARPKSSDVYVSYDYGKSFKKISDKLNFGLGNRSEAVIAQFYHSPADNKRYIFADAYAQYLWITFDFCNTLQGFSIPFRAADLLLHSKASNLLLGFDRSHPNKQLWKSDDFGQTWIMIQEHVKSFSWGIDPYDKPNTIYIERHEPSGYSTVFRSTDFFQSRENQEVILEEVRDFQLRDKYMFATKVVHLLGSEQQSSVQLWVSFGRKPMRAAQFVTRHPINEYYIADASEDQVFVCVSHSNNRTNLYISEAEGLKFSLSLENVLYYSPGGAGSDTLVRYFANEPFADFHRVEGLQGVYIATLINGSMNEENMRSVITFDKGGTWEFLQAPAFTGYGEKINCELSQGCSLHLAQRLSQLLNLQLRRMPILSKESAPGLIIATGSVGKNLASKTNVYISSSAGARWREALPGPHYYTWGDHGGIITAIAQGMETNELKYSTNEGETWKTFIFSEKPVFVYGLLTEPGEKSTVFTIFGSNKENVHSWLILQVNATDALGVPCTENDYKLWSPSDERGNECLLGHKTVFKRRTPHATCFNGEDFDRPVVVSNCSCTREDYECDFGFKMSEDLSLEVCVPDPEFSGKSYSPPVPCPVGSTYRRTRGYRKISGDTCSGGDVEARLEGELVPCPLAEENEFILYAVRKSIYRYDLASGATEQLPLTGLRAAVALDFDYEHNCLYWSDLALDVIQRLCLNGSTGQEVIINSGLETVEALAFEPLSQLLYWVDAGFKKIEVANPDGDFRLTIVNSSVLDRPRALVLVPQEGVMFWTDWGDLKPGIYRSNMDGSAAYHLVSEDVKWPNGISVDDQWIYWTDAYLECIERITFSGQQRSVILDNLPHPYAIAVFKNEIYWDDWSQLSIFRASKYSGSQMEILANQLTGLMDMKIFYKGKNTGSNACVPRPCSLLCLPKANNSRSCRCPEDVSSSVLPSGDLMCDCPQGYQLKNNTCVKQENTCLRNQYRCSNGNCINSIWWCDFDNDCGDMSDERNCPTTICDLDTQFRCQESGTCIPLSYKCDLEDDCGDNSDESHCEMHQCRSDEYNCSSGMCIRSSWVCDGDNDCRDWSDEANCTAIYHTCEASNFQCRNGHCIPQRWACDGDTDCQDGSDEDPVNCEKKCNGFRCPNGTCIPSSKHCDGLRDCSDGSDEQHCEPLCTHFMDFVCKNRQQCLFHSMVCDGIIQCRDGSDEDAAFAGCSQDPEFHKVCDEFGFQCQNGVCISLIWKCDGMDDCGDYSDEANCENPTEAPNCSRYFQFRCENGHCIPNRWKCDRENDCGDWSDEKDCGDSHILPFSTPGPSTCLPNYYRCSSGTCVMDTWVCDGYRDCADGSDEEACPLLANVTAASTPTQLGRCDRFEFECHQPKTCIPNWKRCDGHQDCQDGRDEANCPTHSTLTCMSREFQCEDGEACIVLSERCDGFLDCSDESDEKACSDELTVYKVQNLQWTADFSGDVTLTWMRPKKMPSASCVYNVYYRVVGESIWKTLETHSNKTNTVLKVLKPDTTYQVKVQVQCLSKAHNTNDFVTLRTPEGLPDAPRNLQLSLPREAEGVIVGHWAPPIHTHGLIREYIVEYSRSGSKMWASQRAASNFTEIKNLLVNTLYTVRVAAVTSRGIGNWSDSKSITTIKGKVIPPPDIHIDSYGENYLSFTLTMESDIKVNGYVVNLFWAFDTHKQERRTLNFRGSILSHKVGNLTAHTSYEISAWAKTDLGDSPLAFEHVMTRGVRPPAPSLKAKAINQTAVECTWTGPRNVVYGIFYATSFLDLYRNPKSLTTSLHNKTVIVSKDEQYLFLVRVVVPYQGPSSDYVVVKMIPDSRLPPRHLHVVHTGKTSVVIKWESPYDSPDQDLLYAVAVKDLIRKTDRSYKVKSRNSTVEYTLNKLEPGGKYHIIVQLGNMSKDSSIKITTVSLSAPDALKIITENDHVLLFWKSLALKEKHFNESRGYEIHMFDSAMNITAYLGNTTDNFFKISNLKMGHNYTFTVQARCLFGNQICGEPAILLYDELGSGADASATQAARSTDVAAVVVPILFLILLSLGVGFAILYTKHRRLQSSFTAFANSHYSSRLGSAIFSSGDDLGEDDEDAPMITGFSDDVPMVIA
Sequence of UniProt Q92673 (Q92673 82-2214, chain 2 of 2): as the sequence (Q92673 82-2214, chain 1 of 2) above

Substance | stoichiometry N [1] | co-IP product relative to total input [2] [%]
PA-tagged SORLA VPS10p-domain (1 to 753), T659C mutant (from UniProt Q92673 29-753) (domain or fragment) | 2 | –
VPS26b subunit of retromer (from UniProt Q4G0F5 1-336) (natural protein) | – | 6
